Biological target: T1, IQ Probe (internally quenched linear polypeptide containing the S01 substrate)
T1 chain: LSGRSDNH

B1: Recombinant human MT-SP1 (membrane type serine protease 1; R&D Systems 3946-SEB) (protein)
chain: VVGGTDADEGEWPWQVSLHALGQGHICGASLISPNWLVSAAHCYIDDRGFRYSDPTQWTAFLGLHDQSQRSAPGVQERRLKRIISHPFFNDFTFDYDIALLELEKPAEYSSMVRPICLPDASHVFPAGKAIWVTGWGHTQYGGTGALILQKGEIRVINQTTCENLLPQQITPRMMCVGFLSGGVDSCQGDSGGPLSSVEADGRIFQAGVVSWGDGCAQRNKPGVYTRLPLFRDWIKENTGV
kcat/KM of the S01 substrate, IQ Probe relative to C225-S01: 4.6× and 3.5× times, respectively
